From patent publication US20260167677A1 (Memorial Sloan Kettering, published 2026) come the findings set out here.

In assay [1] the target is recombinant ADAM10 ECD (species not stated). The experiment in a line: cell-based or functional assay.
The target in assay [2] is T1, ADAM10 D+C domains construct (species not stated) (Bos taurus (Bovine), UniProt Q10741 455-646).
T1 construct: also called ADAM10 D+C antigen; isolated recombinant ADAM10 D+C region
T1 sequence: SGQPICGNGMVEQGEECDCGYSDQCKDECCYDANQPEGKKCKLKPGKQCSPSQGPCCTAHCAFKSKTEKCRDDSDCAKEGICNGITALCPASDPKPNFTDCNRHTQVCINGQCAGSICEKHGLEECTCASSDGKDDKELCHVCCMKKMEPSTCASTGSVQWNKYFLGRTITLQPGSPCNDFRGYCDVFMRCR
The experiment in a line: biolayer interferometry (data not shown).

Assay [3] concerns the target T2, recombinant ADAM10 ECD (species not stated).
T2 construct: extracellular domain; also called full recombinant ADAM10 ECD
The experiment in a line: biolayer interferometry (data not shown).

Assay [4] has as its target T3, human ADAM10 expressed on the cell surface (LIM1215, COLO205, HEK293, HEK293 transfected with full-length … (human, UniProt O14672 214-748)).
T3 construct: whole, on cells; also called tumor-expressed ADAM10; ADAM10 expressed on HEK293 cells
T3 sequence (looked up): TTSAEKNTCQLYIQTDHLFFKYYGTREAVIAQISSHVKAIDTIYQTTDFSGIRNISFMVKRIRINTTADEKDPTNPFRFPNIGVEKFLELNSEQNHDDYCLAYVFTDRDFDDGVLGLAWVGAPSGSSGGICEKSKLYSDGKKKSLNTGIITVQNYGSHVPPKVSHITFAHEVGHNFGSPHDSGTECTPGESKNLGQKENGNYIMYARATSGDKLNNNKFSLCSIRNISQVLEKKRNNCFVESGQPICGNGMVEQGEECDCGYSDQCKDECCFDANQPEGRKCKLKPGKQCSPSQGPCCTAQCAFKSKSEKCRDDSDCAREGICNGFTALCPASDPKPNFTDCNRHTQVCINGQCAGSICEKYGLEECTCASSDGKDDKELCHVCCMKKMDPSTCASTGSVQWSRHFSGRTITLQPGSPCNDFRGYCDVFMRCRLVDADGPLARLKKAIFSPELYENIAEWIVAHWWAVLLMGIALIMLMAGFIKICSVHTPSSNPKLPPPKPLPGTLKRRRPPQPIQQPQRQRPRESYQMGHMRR
Put plainly: cell-based ELISA, 1H5 signal normalised to mAb1427 signal. Here is the method:
Briefly, 5×10⁴ cells/well were immobilized on 96-well ELISA plates (Greiner bio-one) with 1% paraformaldehyde for 2 hours at 37° C. The plate was washed thrice with PBS and blocked for 2 hours at room temperature with 4% non-fat dry milk. The anti-ADAM10 mAbs were added in varying concentrations. […] The data was recorded at 450 nm.

In assay [5] the target is T4, human ADAM10 D+C (455-650) (human, UniProt O14672 455-650).
T4 construct: range 455-650; also called human (h) ADAM10 D+C; human (h) ADAM10 D-C
T4 sequence (looked up): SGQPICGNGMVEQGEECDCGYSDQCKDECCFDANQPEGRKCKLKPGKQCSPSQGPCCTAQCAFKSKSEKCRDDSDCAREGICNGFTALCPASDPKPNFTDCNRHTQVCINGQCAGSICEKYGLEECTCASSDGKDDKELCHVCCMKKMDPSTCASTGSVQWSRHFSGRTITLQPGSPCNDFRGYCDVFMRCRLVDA
Put plainly: ELISA, 1H5 IgG titrated on immobilised human ADAM10 D+C, absorbance 450 nm [cont.) E].

In assay [6] the target is T5, bovine ADAM10 disintegrin+cysteine-rich domain construct (D+C, residues 455-646) (bovine, UniProt Q10741 455-646).
T5 construct: range 455-646; also called ADAM10 D+C (b); bovine (b) ADAM10 D+C
T5 sequence (looked up): T1 sequence
Put plainly: ELISA, 1H5 IgG titrated on immobilised bovine ADAM10 D+C, absorbance 450 nm [cont.) E].

Assay [7] concerns the target T1, ADAM10 D+C domains construct (species …). Put plainly: ELISA, 1H5 Fab titrated on ADAM10 D+C, absorbance 450 nm. On the procedure: To perform the competitive ELISA, wells were coated with 100 μl of ADAM10 D+C (concentration 2 μg/ml). After washes with phosphate buffer solution (PBS), the wells were blocked with 4% non-fat dry milk. […] Color was developed using a TMB substrate kit and data was recorded at 450 nm. […] The final concentration of each mAb in the mixture was the same as when added individually. The mixture was added to the wells and incubated for 1 hour.

B1: 1H5 IgG (fully human anti-ADAM10 monoclonal antibody) (antibody, V domains shown)
VH: QVQLVESGGGLVKPGGSLRLSCAASGFTFSDYYMSWIRQAPGKGLEWVSYISSSGSTIYYADSVKGRFTISRDNAKNSLYLQMNSLRAEDTAVYYCARDFYDSKIFDYWGQGTLVTVSS
VL: DIQMTQSPSSLSASVGDRVTITCRASQSISSYLNWYQQKPGKAPKLLIYAASSLQSGVPSRFSGSGSGTDFTLTISSLQPEDVGVYYCMEGLKTPFTFGPGTKLEIKR
notes: the amino acid entries 14 and 15 are used here; also called 1H5 mAb; mAb 1H5
With B1, in assay [1], the “augmentation of fluorogenic substrate peptide cleavage, relative to 8C7” value is around 2 fold. Further, the Kd was 3.3 nM in assay [2] and around 200 nM in assay [3]. Further, in assay [4], the “fold better binding to tumor-expressed ADAM10 than to ADAM10 expressed on HEK293 cells” value is around 14 fold. In addition, the “EC50 (read off the curve)” value in assay [5] and in assay [6] was around 3 nM in each case.

B2: 1H5 Fab (Fab, V domains shown)
VH: B1 VH
VL: B1 VL
notes: also called 1H5 Fab fragment; Fab fragment of 1H5
B2 came in with a concentration giving a half-maximal response (EC50) in assay [7] of 15 nM.
